The values below come from PMC10482388, “A novel homeostatic mechanism tunes PI(4,5)P2-dependent signaling at the plasma membrane” (Journal of Cell Science, 2023).

The assay has as its target (Gly)5–PIP5K1A (aa 1–546), purified human PIP5K1A (human, UniProt Q99755 1-546). The experiment in a line: cell-based or functional assay.

Chain of (Gly)5–PIP5K1A (aa 1–546), purified human PIP5K1A (Q99755 other isoform, or with tags, fused parts or gaps): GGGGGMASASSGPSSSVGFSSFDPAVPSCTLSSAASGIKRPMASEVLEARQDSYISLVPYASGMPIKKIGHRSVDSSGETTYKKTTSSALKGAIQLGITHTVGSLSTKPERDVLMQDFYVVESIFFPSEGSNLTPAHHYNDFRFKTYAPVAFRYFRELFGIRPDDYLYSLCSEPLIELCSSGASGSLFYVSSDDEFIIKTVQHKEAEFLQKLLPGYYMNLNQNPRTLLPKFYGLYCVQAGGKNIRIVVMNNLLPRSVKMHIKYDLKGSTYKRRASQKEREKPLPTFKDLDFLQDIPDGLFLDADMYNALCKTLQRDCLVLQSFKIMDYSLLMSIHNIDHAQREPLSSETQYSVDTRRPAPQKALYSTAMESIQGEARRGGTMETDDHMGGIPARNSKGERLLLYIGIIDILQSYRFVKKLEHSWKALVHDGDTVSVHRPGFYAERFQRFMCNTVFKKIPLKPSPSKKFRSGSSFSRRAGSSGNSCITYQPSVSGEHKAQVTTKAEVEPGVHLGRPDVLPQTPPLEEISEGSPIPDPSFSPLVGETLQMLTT

B1: (Gly)5–PIP4K2A (aa 1–406), purified human PIP4K2A (enzyme)
chain: GGGGGMATPGNLGSSVLASKTKTKKKHFVAQKVKLFRASDPLLSVLMWGVNHSINELSHVQIPVMLMPDDFKAYSKIKVDNHLFNKENMPSHFKFKEYCPMVFRNLRERFGIDDQDFQNSLTRSAPLPNDSQARSGARFHTSYDKRYIIKTITSEDVAEMHNILKKYHQYIVECHGITLLPQFLGMYRLNVDGVEIYVIVTRNVFSHRLSVYRKYDLKGSTVAREASDKEKAKELPTLKDNDFINEGQKIYIDDNNKKVFLEKLKKDVEFLAQLKLMDYSLLVGIHDVERAEQEEVECEENDGEEEGESDGTHPVGTPPDSPGNTLNSSPPLAPGEFDPNIDVYGIKCHENSPRKEVYFMAIIDILTHYDAKKKAAHAAKTVKHGAGAEISTVNPEQYSKRFLDFIGHILT
modifications: fluorescently labelled LPETGG peptide (Alexa Fluor 488, Alexa Fluor 647 or Cy5) ligated by sortase onto the N-terminal (Gly)5 motif
As for B1, the “kinetics of PI(4,5)P2 production on PI4P-containing supported lipid bilayers, 1 nM PIP5K1A with or without 50 nM PIP4K2A; time to completion of the reaction” value was 2 fold (reaction completion time).
